Source: patent US20090208994A1, “GENETIC INCORPORATION OF 3-AMINOTYROSINE INTO REDUCTASES” (THE SCRIPPS RESEARCH INSTITUTE, priority 2007, published 2009)

Tests used:
[1] = system: DH10B E. coli cells; assay: Toxicity of NH2Y: growth in liquid GMML medium and on agar plates; assay type: cell-based
Description: Toxicity and uptake of NH2Y. Evolution of an NH2Y-specific aminoacyl-tRNA synthetase (RS) requires that NH2Y is taken up by E. coli, that it is not toxic, and that it is not incorporated into proteins by any endogenous RSs. All three requirements were met by NH2Y. […] The presence of DTT however, caused cells to grow at a rate 25-35% more slowly than those in the presence of only NH2Y or absence of NH2Y/DTT.

[2] = pH 7; cited from earlier work
[3] = molecular target: T1, E. coli ribonucleotide reductase (α2β2 complex) (Escherichia coli, UniProt P00452); conditions: previous studies; inactivation of wt α2β2 by N3ADP/dGTP; 20 s time scale; cited from earlier work
T1 construct: made in house; host or cells: E. coli DH10B for the NH2Y-α2s

[4] = molecular target: T2, wt β2, P69924
T2 chain: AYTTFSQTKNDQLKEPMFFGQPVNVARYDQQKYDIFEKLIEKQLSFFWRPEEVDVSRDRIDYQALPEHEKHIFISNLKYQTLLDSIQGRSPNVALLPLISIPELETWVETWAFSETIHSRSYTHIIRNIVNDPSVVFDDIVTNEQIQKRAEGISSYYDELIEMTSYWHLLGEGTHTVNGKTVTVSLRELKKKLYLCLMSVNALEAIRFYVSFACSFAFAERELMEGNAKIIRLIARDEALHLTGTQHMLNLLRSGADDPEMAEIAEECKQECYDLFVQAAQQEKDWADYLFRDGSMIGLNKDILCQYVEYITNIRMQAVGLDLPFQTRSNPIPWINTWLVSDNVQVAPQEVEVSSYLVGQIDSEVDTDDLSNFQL

[5] = molecular target: wt β2 (E. coli) (UniProt P69924); assay: cell-based or functional assay

In the case of `O[C@H](CS)[C@H](O)CS` (racemic) [DTT, DL-dithiothreitol], the “cells grow more slowly (rate)” value ([1]; presence of DTT (0.1 mM) vs. only NH2Y or absence of NH2Y/DTT) is reported as 25-35%.

For `N[C@@H](Cc1ccc(O)c(O)c1)C(=O)O` [DOPA, 3,4-dihydroxyphenylalanine], the “reduction potential lower than that of Y” value [2] is given as 260 mV.

For `[N-]=[N+]=N[C@@H]1[C@H](O)[C@@H](COP(=O)(O)OP(=O)(O)O)O[C@H]1n1cnc2c(N)ncnc21` [N3ADP, 2′-Azido-2′-deoxyadenosine-5′-diphosphate], the “initial Y122• lost (forming an equivalent amount of N•)” value [3] is given as 50-60%.

With `Nc1cc(C[C@H](N)C(=O)O)ccc1O` [NH2Y, 3-aminotyrosine] the “effect on growth rates” value ([1]; NH2Y (1 mM) or NH2Y/DTT in GMML medium and agar plates) was “not significantly affected”.

B1: Y730NH2Y-α2 (protein)
chain: MNQNLLVTKRDGSTERINLDKIHRVLDWAAEGLHNVSISQVELRSHIQFYDGIKTSDIHETIIKAAADLISRDAPDYQYLAARLAIFHLRKKAYGQFEPPALYDHVVKMVEMGKYDNHLLEDYTEEEFKQMDTFIDHDRDMTFSYAAVKQLEGKYLVQNRVTGEIYESAQFLYILVAACLFSNYPRETRLQYVKRFYDAVSTFKISLPTPIMSGVRTPTRQFSSCVLIECGDSLDSINATSSAIVKYVSQRAGIGINAGRIRALGSPIRGGEAFHTGCIPFYKHFQTAVKSCSQGGVRGGAATLFYPMWHLEVESLLVLKNNRGVEGNRVRHMDYGVQINKLMYTRLLKGEDITLFSPSDVPGLYDAFFADQEEFERLYTKYEKDDSIRKQRVKAVELFSLMMQERASTGRIYIQNVDHCNTHSPFDPAIAPVRQSNLCLEIALPTKPLNDVNDENGEIALCTLSAFNLGAINNLDELEELAILAVRALDALLDYQDYPIPAAKRGAMGRRTLGIGVINFAYYLAKHGKRYSDGSANNLTHKTFEAIQYYLLKASNELAKEQGACPWFNETTYAKGILPIDTYKKDLDTIANEPLHYDWEALRESIKTHGLRNSTLSALMPSETSSQISNATNGIEPPRGYVSIKASKDGILRQVVPDYEHLHDAYELLWEMPGNDGYLQLVGIMQKFIDQSISANTNYDPSRFPSGKVPMQQLLKDLLTAYKFGVKTLYYQNTRDGAEDAQDDLVPSIQDDGCESGACKI
For B1, the “kobs / Ampl, 1st phase, without CDP/ATP” value [4] was “No changes observed”, the “kobs / Ampl, 2nd phase, without CDP/ATP” value [4] was “No changes observed” and the “rate constant of formation of NH2Y• at 325 nm (fast phase)” value [4] was 13.6 ± 0.1 s⁻¹. The “rate constant of formation of NH2Y• at 325 nm (slow phase)” value [4] was 2.5 ± 0.1 s⁻¹, the “rate constant of loss of Y122• at 410 nm (fast phase)” value [4] was 12.0 ± 0.1 s⁻¹ and the “rate constant of loss of Y122• at 410 nm (slow phase)” value [4] was 2.4 ± 0.1 s⁻¹. The “kobs, 1st phase (stopped-flow UV-vis, Y122• loss / NH2Y730• formation, with CDP/ATP)” value ([4]; in 1/s) was 12.8 ± 0.8, 20 ± 1 and the “kobs, 2nd phase (stopped-flow UV-vis, Y122• loss / NH2Y730• formation, with CDP/ATP)” value ([4]; in 1/s) was 2.5 ± 0.1, 19 ± 1.

B2: Y731NH2Y-α2 (enzyme, E. coli, UniProt P00452 1-761, looked up)
chain: B1 chain
modifications: 3-aminotyrosine (NH2Y) in place of Tyr at 731 (E. coli RNR numbering)
In the case of B2, the Ampl, 1st phase (% of total initial Y122• trapped, with CDP/ATP) [5] is reported as 24%, the Ampl, 2nd phase (% of total initial Y122• trapped, with CDP/ATP) [5] is reported as 11% and the EPR spin quantitation at 10 s: share of remaining spin associated with NH2Y731•, with CDP/ATP [5] is reported as 45%. The total initial Y122• consumed at 2 s [5] was 35%.

B3: Y730NH2Y-α2 (enzyme, E. coli, UniProt P00452 1-761, looked up)
chain: B1 chain
modifications: 3-aminotyrosine (NH2Y) in place of Tyr at 730 (E. coli RNR numbering)
For B3, the Ampl, 1st phase (% of total initial Y122• trapped, with CDP/ATP) [5] was 20%, the Ampl, 2nd phase (% of total initial Y122• trapped, with CDP/ATP) [5] was 19% and the EPR spin quantitation at 10 s: share of remaining spin in the new signal (NH2Y730•), with CDP/ATP [5] was 53%. It also gave a total initial Y122• consumed at 2 s [5] of 39%.
